This series concerns the molecule itself. Nature of the series: SEC; purified S. hawaiiensis ClpP1, alone or with ClpP_(ADEP), pre-incubated with ADEP1. For orientation: In gel filtration, larger molecules generally elute earlier.

The text below walks through data of paper PMC12607617, “Self-resistance mechanism to acyldepsipeptide antibiotics in the Streptomyces producer” (mBio, 2025).

B1: Streptomyces hawaiiensis ClpP1, untagged (enzyme, Streptomyces hawaiiensis NRRL 15010, UniProt A0A5B9BGY8 1-219, looked up)
chain: MRRPGAVVRRAGGYVTNLMPSAAGEPSIGGGLGDQVYNRLLNERIIFLGQPVDDDIANKITAQLLLLASDPEKDIYLYINSPGGSITAGMAIYDTMQYIKNDVVTIAMGLAASMGQFLLSAGTPGKRFALPNAEILIHQPSAGLAGSASDIKIHAERLLHTKKRMAELTSQHTGQTIEQITRDSDRDRWFDAFEAKEYGLIDDVMTTAAGMPGGGGTGA
notes: ClpP1, proteolytic subunit of the Clp protease, Streptomyces hawaiiensis NRRL 15010; Printed as untagged in the pull-down; also called shClpP1
Turning to B1, the stoichiometry N (usually a count of units in the complex or per binding partner) is 14.
